Five molecules from patent US20250032576A1, “CNP Therapy” (BIOMARIN PHARMACEUTICAL INC., priority 2021, published 2025) can be followed below.

Several values for one entry are separate records, joined by “and”; a condition that tells them apart may be missing. Equal entries are not always repeated.

For the assay, the system named is NPR2. Kind of assay: cGMP catchpoint assay of NPR2 variants in transfected HEK293 cells treated with 20 nM CNP. The following applies: for average phenotype: cGMP normalized to RedLuciferase and to WT = 1, HEK293, 20 nM CNP, 0.4 nM IBMX, at least 3 repeat experiments with 4 replicates each; for Lable: high-confidence variant class. More on the design: key to Lable: loss-of-function (LoF); Gain-of-function (GoF). The class given is cell-based. As for the experimental part:
Described herein is an in-vitro assay (cGMP) to assess the activities of >260 NPR2 variants. NPR2 protein-altering variants have been identified in the UK Biobank study and described in Estrada et al. (Nat Commun. 2021 12 (1): 2224). NPR2-expression constructs were transfected into HEK293 cells and 3 days later cells were treated with […] IBMX and 20 nM CNP in serum-free DMEM prior to measuring cGMP levels. The cGMP catchpoint ELISA competition assay (Molecular Devices) was used to measure cGMP according to manufacturer recommendations. RedLuc was used as a transfection control (FIG. 8A).
The NPR2 alpha-fold structure was obtained from a recent alpha-fold publication (Jumper et al., Nature 596:583-589 (2021)). A list of phenotypically characterized “high-confidence” variants was generated (Table 4). Phenotype is calculated by determining levels of cGMP using a standard curve. This value to normalized to RedLuciferase (transfection control). This value is further normalized by setting WT to 1. Average value is calculated from at least 3 repeat experiments with 4 replicates each.

B1: Arg957Cys: NPR2 protein-altering variant, expression construct transfected into HEK293 cells (protein)
chain: RNLTLAVVLPEHNLSYAWAWPRVGPAVALAVEALGRALPVDLRFVSSELEGACSEYLAPLSAVDLKLYHDPDLLLGPGCVYPAASVARFASHWRLPLLTAGAVASGFSAKNDHYRTLVRTGPSAPKLGEFVVTLHGHFNWTARAALLYLDARTDDRPHYFTIEGVFEALQGSNLSVQHQVYAREPGGPEQATHFIRANGRIVYICGPLEMLHEILLQAQRENLTNGDYVFFYLDVFGESLRAGPTRATGRPWQDNRTREQAQALREAFQTVLVITYREPPNPEYQEFQNRLLIRAREDFGVELGPSLMNLIAGCFYDGILLYAEVLNETIQEGGTREDGLRIVEKMQGRRYHGVTGLVVMDKNNDRETDFVLWAMGDLDSGDFQPAAHYSGAEKQIWWTGRPIPWVKGAPPSDNPPCAFDLDDPSCDKTPLSTLAIVALGTGITFIMFGVSSFLIFRKLMLEKELASMLWRIRWEELQFGNSERYHKGAGSRLTLSLRGSSYGSLMTAHGKYQIFANTGHFKGNVVAIKHVNKKRIELTRQVLFELKHMRDVQFNHLTRFIGACIDPPNICIVTEYCPRGSLQDILENDSINLDWMFRYSLINDLVKGMAFLHNSIISSHGSLKSSNCVVDSRFVLKITDYGLASFRSTAEPDDSHALYAKKLWTAPELLSGNPLPTTGMQKADVYSFGIILQEIALRSGPFYLEGLDLSPKEIVQKVRNGQRPYFRPSIDRTQLNEELVLLMERCWAQDPAERPDFGQIKGFIRRFNKEGGTSILDNLLLRMEQYANNLEKLVEERTQAYLEEKRKAEALLYQILPHSVAEQLKRGETVQAEAFDSVTIYFSDIVGFTALSAESTPMQVVTLLNDLYTCFDAIIDNFDVYKVETIGDAYMVVSGLPGRNGQRHAPEIARMALALLDAVSSFRIRHRPHDQLRLCIGVHTGPVCAGVVGLKMPRYCLFGDTVNTASRMESNGQALKIHVSSTTKDALDELGCFQLELRGDVEMKGKGKMRTYWLLGERKGPPGLL
With B1, the average phenotype is 0.01553 and 0.02954; the Lable entry was “LoF”.

B2: Trp42Arg: NPR2 protein-altering variant, expression construct transfected into HEK293 cells (protein)
chain: RNLTLAVVLPEHNLSYAWARPRVGPAVALAVEALGRALPVDLRFVSSELEGACSEYLAPLSAVDLKLYHDPDLLLGPGCVYPAASVARFASHWRLPLLTAGAVASGFSAKNDHYRTLVRTGPSAPKLGEFVVTLHGHFNWTARAALLYLDARTDDRPHYFTIEGVFEALQGSNLSVQHQVYAREPGGPEQATHFIRANGRIVYICGPLEMLHEILLQAQRENLTNGDYVFFYLDVFGESLRAGPTRATGRPWQDNRTREQAQALREAFQTVLVITYREPPNPEYQEFQNRLLIRAREDFGVELGPSLMNLIAGCFYDGILLYAEVLNETIQEGGTREDGLRIVEKMQGRRYHGVTGLVVMDKNNDRETDFVLWAMGDLDSGDFQPAAHYSGAEKQIWWTGRPIPWVKGAPPSDNPPCAFDLDDPSCDKTPLSTLAIVALGTGITFIMFGVSSFLIFRKLMLEKELASMLWRIRWEELQFGNSERYHKGAGSRLTLSLRGSSYGSLMTAHGKYQIFANTGHFKGNVVAIKHVNKKRIELTRQVLFELKHMRDVQFNHLTRFIGACIDPPNICIVTEYCPRGSLQDILENDSINLDWMFRYSLINDLVKGMAFLHNSIISSHGSLKSSNCVVDSRFVLKITDYGLASFRSTAEPDDSHALYAKKLWTAPELLSGNPLPTTGMQKADVYSFGIILQEIALRSGPFYLEGLDLSPKEIVQKVRNGQRPYFRPSIDRTQLNEELVLLMERCWAQDPAERPDFGQIKGFIRRFNKEGGTSILDNLLLRMEQYANNLEKLVEERTQAYLEEKRKAEALLYQILPHSVAEQLKRGETVQAEAFDSVTIYFSDIVGFTALSAESTPMQVVTLLNDLYTCFDAIIDNFDVYKVETIGDAYMVVSGLPGRNGQRHAPEIARMALALLDAVSSFRIRHRPHDQLRLRIGVHTGPVCAGVVGLKMPRYCLFGDTVNTASRMESNGQALKIHVSSTTKDALDELGCFQLELRGDVEMKGKGKMRTYWLLGERKGPPGLL
Consider B2, for which the average phenotype is 0.0288 and the Lable entry was “LoF”.

B3: Leu956Gln: NPR2 protein-altering variant, expression construct transfected into HEK293 cells (protein)
chain: RNLTLAVVLPEHNLSYAWAWPRVGPAVALAVEALGRALPVDLRFVSSELEGACSEYLAPLSAVDLKLYHDPDLLLGPGCVYPAASVARFASHWRLPLLTAGAVASGFSAKNDHYRTLVRTGPSAPKLGEFVVTLHGHFNWTARAALLYLDARTDDRPHYFTIEGVFEALQGSNLSVQHQVYAREPGGPEQATHFIRANGRIVYICGPLEMLHEILLQAQRENLTNGDYVFFYLDVFGESLRAGPTRATGRPWQDNRTREQAQALREAFQTVLVITYREPPNPEYQEFQNRLLIRAREDFGVELGPSLMNLIAGCFYDGILLYAEVLNETIQEGGTREDGLRIVEKMQGRRYHGVTGLVVMDKNNDRETDFVLWAMGDLDSGDFQPAAHYSGAEKQIWWTGRPIPWVKGAPPSDNPPCAFDLDDPSCDKTPLSTLAIVALGTGITFIMFGVSSFLIFRKLMLEKELASMLWRIRWEELQFGNSERYHKGAGSRLTLSLRGSSYGSLMTAHGKYQIFANTGHFKGNVVAIKHVNKKRIELTRQVLFELKHMRDVQFNHLTRFIGACIDPPNICIVTEYCPRGSLQDILENDSINLDWMFRYSLINDLVKGMAFLHNSIISSHGSLKSSNCVVDSRFVLKITDYGLASFRSTAEPDDSHALYAKKLWTAPELLSGNPLPTTGMQKADVYSFGIILQEIALRSGPFYLEGLDLSPKEIVQKVRNGQRPYFRPSIDRTQLNEELVLLMERCWAQDPAERPDFGQIKGFIRRFNKEGGTSILDNLLLRMEQYANNLEKLVEERTQAYLEEKRKAEALLYQILPHSVAEQLKRGETVQAEAFDSVTIYFSDIVGFTALSAESTPMQVVTLLNDLYTCFDAIIDNFDVYKVETIGDAYMVVSGLPGRNGQRHAPEIARMALALLDAVSSFRIRHRPHDQLRQRIGVHTGPVCAGVVGLKMPRYCLFGDTVNTASRMESNGQALKIHVSSTTKDALDELGCFQLELRGDVEMKGKGKMRTYWLLGERKGPPGLL
On to B3, for which the average phenotype was 0.02434 and the Lable entry is “LoF”.

B4: Val965Asp: NPR2 protein-altering variant, expression construct transfected into HEK293 cells (protein)
chain: RNLTLAVVLPEHNLSYAWAWPRVGPAVALAVEALGRALPVDLRFVSSELEGACSEYLAPLSAVDLKLYHDPDLLLGPGCVYPAASVARFASHWRLPLLTAGAVASGFSAKNDHYRTLVRTGPSAPKLGEFVVTLHGHFNWTARAALLYLDARTDDRPHYFTIEGVFEALQGSNLSVQHQVYAREPGGPEQATHFIRANGRIVYICGPLEMLHEILLQAQRENLTNGDYVFFYLDVFGESLRAGPTRATGRPWQDNRTREQAQALREAFQTVLVITYREPPNPEYQEFQNRLLIRAREDFGVELGPSLMNLIAGCFYDGILLYAEVLNETIQEGGTREDGLRIVEKMQGRRYHGVTGLVVMDKNNDRETDFVLWAMGDLDSGDFQPAAHYSGAEKQIWWTGRPIPWVKGAPPSDNPPCAFDLDDPSCDKTPLSTLAIVALGTGITFIMFGVSSFLIFRKLMLEKELASMLWRIRWEELQFGNSERYHKGAGSRLTLSLRGSSYGSLMTAHGKYQIFANTGHFKGNVVAIKHVNKKRIELTRQVLFELKHMRDVQFNHLTRFIGACIDPPNICIVTEYCPRGSLQDILENDSINLDWMFRYSLINDLVKGMAFLHNSIISSHGSLKSSNCVVDSRFVLKITDYGLASFRSTAEPDDSHALYAKKLWTAPELLSGNPLPTTGMQKADVYSFGIILQEIALRSGPFYLEGLDLSPKEIVQKVRNGQRPYFRPSIDRTQLNEELVLLMERCWAQDPAERPDFGQIKGFIRRFNKEGGTSILDNLLLRMEQYANNLEKLVEERTQAYLEEKRKAEALLYQILPHSVAEQLKRGETVQAEAFDSVTIYFSDIVGFTALSAESTPMQVVTLLNDLYTCFDAIIDNFDVYKVETIGDAYMVVSGLPGRNGQRHAPEIARMALALLDAVSSFRIRHRPHDQLRLRIGVHTGPDCAGVVGLKMPRYCLFGDTVNTASRMESNGQALKIHVSSTTKDALDELGCFQLELRGDVEMKGKGKMRTYWLLGERKGPPGLL
For B4, the average phenotype is on record as 0.0158 and the Lable entry was “LoF”.

B5: Gly917Arg: NPR2 protein-altering variant, expression construct transfected into HEK293 cells (protein)
chain: RNLTLAVVLPEHNLSYAWAWPRVGPAVALAVEALGRALPVDLRFVSSELEGACSEYLAPLSAVDLKLYHDPDLLLGPGCVYPAASVARFASHWRLPLLTAGAVASGFSAKNDHYRTLVRTGPSAPKLGEFVVTLHGHFNWTARAALLYLDARTDDRPHYFTIEGVFEALQGSNLSVQHQVYAREPGGPEQATHFIRANGRIVYICGPLEMLHEILLQAQRENLTNGDYVFFYLDVFGESLRAGPTRATGRPWQDNRTREQAQALREAFQTVLVITYREPPNPEYQEFQNRLLIRAREDFGVELGPSLMNLIAGCFYDGILLYAEVLNETIQEGGTREDGLRIVEKMQGRRYHGVTGLVVMDKNNDRETDFVLWAMGDLDSGDFQPAAHYSGAEKQIWWTGRPIPWVKGAPPSDNPPCAFDLDDPSCDKTPLSTLAIVALGTGITFIMFGVSSFLIFRKLMLEKELASMLWRIRWEELQFGNSERYHKGAGSRLTLSLRGSSYGSLMTAHGKYQIFANTGHFKGNVVAIKHVNKKRIELTRQVLFELKHMRDVQFNHLTRFIGACIDPPNICIVTEYCPRGSLQDILENDSINLDWMFRYSLINDLVKGMAFLHNSIISSHGSLKSSNCVVDSRFVLKITDYGLASFRSTAEPDDSHALYAKKLWTAPELLSGNPLPTTGMQKADVYSFGIILQEIALRSGPFYLEGLDLSPKEIVQKVRNGQRPYFRPSIDRTQLNEELVLLMERCWAQDPAERPDFGQIKGFIRRFNKEGGTSILDNLLLRMEQYANNLEKLVEERTQAYLEEKRKAEALLYQILPHSVAEQLKRGETVQAEAFDSVTIYFSDIVGFTALSAESTPMQVVTLLNDLYTCFDAIIDNFDVYKVETIGDAYMVVSRLPGRNGQRHAPEIARMALALLDAVSSFRIRHRPHDQLRLRIGVHTGPVCAGVVGLKMPRYCLFGDTVNTASRMESNGQALKIHVSSTTKDALDELGCFQLELRGDVEMKGKGKMRTYWLLGERKGPPGLL
B5: the average phenotype was 0.01708 and the Lable result is reported as “LoF”.
